This experiment addresses T1, MtRipACAT (catalytic domain of M. tuberculosis RipA, residues 261-472) (Mycobacterium tuberculosis, UniProt O53168 261-472).
T1 construct: also called MtRipA catalytic domain; NlpC/P60 catalytic domain; not shown: 6xHis-SUMO, N-terminal, cleaved
T1 sequence: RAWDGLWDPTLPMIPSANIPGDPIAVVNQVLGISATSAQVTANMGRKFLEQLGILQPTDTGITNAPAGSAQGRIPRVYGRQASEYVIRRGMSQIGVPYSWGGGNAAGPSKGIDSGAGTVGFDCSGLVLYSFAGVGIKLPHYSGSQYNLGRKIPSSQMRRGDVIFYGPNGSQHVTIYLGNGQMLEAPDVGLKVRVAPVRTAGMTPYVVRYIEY
Put plainly: BLI; biotinylated MtRipACC immobilised on streptavidin biosensors; 25°C; 25 mM HEPES pH 7.5, 150 mM NaCl, 5% glycerol, BSA 1 mg/mL, 0.05% Tween 20; steady-state signal versus concentration, one-site binding model; apparent Kd. Conditions: both partners purified. (In general: In BLI a coated tip is dipped into the sample, and binding shifts an interference pattern.)

B1: MtRipACC (coiled-coil domain of M. tuberculosis RipA, residues 40-240) (domain or fragment)
chain: DPQTDTIAALIADVAKANQRLQDLSDEVQAEQESVNKAMVDVETARDNAAAAEDDLEVSQRAVKDANAAIAAAQHRFDTFAAATYMNGPSVSYLSASSPDEIIATVTAAKTLSASSQAVMANLQRARTERVNTESAARLAKQKADKAAADAKASQDAAVAALTETRRKFDEQREEVQRLAAERDAAQARLQAARLVAWSSE
modifications: biotinylated with EZ-Link NHS-PEG4-Biotin (20 molar excess) for the BLI assays
notes: also called RipA coiled-coil (CC) domain; MtRipA CC domain; not shown: 6xHis-SUMO, N-terminal, cleaved
Regarding B1, the Kd was 6.8 ± 1.4 µM.

These data come from article doi:10.1101/2025.06.28.662095, “Mechanistic insights into the allosteric regulation of cell wall hydrolase RipA in Mycobacterium tuberculosis” (bioRxiv, 2025).
